Where no end group is shown, it is not given here.
B1: Peptide-180 (peptide)
peptide: IAVLCQPNWMCAGF
modifications: cysteine pairing not given here; also: biotinylated, site not given here
notes: PSMA mask peptide
B2: Peptide-236 (peptide)
peptide: DVKLCKPEWMCYGL
B3: Peptide-232 (peptide)
peptide: LDKWCVPKWMCSGL
B4: Peptide-233 (peptide)
peptide: GEKWCIPDWMCSGF
B5: Peptide-179 (peptide)
peptide: LMKWCTPRWMCAAE
modifications: cysteine pairing not given here; also: biotinylated, site not given here
notes: PSMA mask peptide
B6: Peptide-239 (peptide)
peptide: IDIRCTPIWMCVGF
B7: Peptide-219 (peptide)
peptide: HVKLCKPAWMCQGL
B8: Peptide-235 (peptide)
peptide: VEKLCTPIWMCLGF
B9: Peptide-227 (peptide)
peptide: LDNWCKPSWMCTGF
B10: Peptide-225 (peptide)
peptide: IPKSCIPSWMCTGF
B11: Peptide-254 (peptide)
peptide: IAVLCAPNWMCAGF
notes: Alanine-scan variant Q6A of Peptide-180
B12: Peptide-253 (peptide)
peptide: IAVACQPNWMCAGF
notes: Alanine-scan variant L4A of Peptide-180
B13: Peptide-260 (peptide)
peptide: IAVLCQPNWMCAGA
notes: Alanine-scan variant F14A of Peptide-180
B14: Peptide-251 (peptide)
peptide: AAVLCQPNWMCAGF
notes: Alanine-scan variant I1A of Peptide-180
B15: Peptide-259 (peptide)
peptide: IAVLCQPNWMCAAF
notes: Alanine-scan variant G13A of Peptide-180
B16: Peptide-256 (peptide)
peptide: IAVLCQPAWMCAGF
notes: Alanine-scan variant N8A of Peptide-180
B17: Peptide-252 (peptide)
peptide: IAALCQPNWMCAGF
notes: Alanine-scan variant V3A of Peptide-180
B18: Phage-452 (peptide)
peptide: MDWCPRDWWHMCFN
notes: Clone of the Peptide-9 optimisation library
B19: Phage-451 (peptide)
peptide: MDWCPRFWWHECYA
notes: as for B18
B20: Phage-453 (peptide)
peptide: MDWCPSDYWYVCFA
notes: as for B18
B21: Peptide-92 (peptide)
peptide: SCAAGASYAWPYCL
B22: Phage-1327 (Peptide-87 library sequence, SEQ ID NO: 1643) (peptide)
peptide: YCDGHLPEYMEKCL
B23: Peptide-132 (peptide)
peptide: YCEGHLPEYRNKCL
modifications: cysteine pairing not given here; also: biotinylated, site not given here
B24: Peptide-134 (peptide)
peptide: YCEGHLPEYIQKCL
modifications: not fully specified; cysteine pairing not given here; also: biotinylated, site not given here
B25: Peptide-247 (peptide)
peptide: LMKWCTPAWMCAAE
B26: Peptide-245 (peptide)
peptide: LMKWCAPRWMCAAE
B27: Peptide-244 (peptide)
peptide: LMKACTPRWMCAAE
B28: Peptide-243 (peptide)
peptide: LMAWCTPRWMCAAE
B29: Peptide-242 (peptide)
peptide: LAKWCTPRWMCAAE
B30: Peptide-250 (peptide)
peptide: LMKWCTPRWMCAAA
B31: Peptide-241 (peptide)
peptide: AMKWCTPRWMCAAE
B32: Peptide-230 (peptide)
peptide: VTKWCIPPWMCEVT
B33: Phage-1013 (Peptide-87 library peptide, SEQ ID NO: 1329) (peptide)
peptide: YCEGHSLMYMAKCL
notes: tested as crude clonal phage supernatant
B34: Phage-1022 (Peptide-87 library peptide, SEQ ID NO: 1338) (peptide)
peptide: YCDGHSEQYIAKCL
notes: as for B33
B35: Phage-1020 (Peptide-87 library peptide, SEQ ID NO: 1336) (peptide)
peptide: YCEGHIMQYMAQCL
notes: as for B33
B36: Phage-1014 (Peptide-87 library peptide, SEQ ID NO: 1330) (peptide)
peptide: YCDGHSQEYMEKCL
notes: as for B33
B37: Phage-1021 (Peptide-87 library peptide, SEQ ID NO: 1337) (peptide)
peptide: YCDGHLPIYQAKCL
notes: as for B33
B38: Phage-1010 (Peptide-87 library peptide, SEQ ID NO: 1326) (peptide)
peptide: YCDGHSELYMAKCL
notes: as for B33
B39: Phage-1012 (Peptide-87 library peptide, SEQ ID NO: 1328) (peptide)
peptide: YCEGHMPQYMEKCL
notes: as for B33
B40: Peptide-96 (peptide)
peptide: YCAGHTEEHYVKCM
B41: Peptide-98 (peptide)
peptide: YCAGHSHEYLAKCE
B42: Peptide-97 (peptide)
peptide: YCMGHSHEHIWKCL
B43: Peptide-95 (peptide)
peptide: YCAGHMPQYEVKCL

target: T1, PSMA Fab; assay: BLI (Octet); PSMA Fab on sensor-loaded biotinylated peptide, 1:1 model
T1 construct: also called 006 PSMA Fab; anti-PSMA Fab

| Binder | Off rate t1/2 [min] |
| --- | --- |
| B1 | 0.6 |

target: T1, PSMA Fab; assay: binding ELISA; PSMA Fab titrated on plate-captured biotinylated peptide

| Binder | EC50 [µM] |
| --- | --- |
| B2 | 0.0198 |
| B3 | 0.0072 |
| B4 | 0.0069 |
| B5 | 0.11 |
| B6 | 0.0094 |
| B7 | 0.0061 |
| B8 | 0.0105 |
| B9 | 0.0077 |
| B10 | 0.0097 |

target: T1, PSMA Fab; assay: competition ELISA; peptide 0-100 µM with 0.3 nM PSMA Fab on plate-captured biotinylated PSMA

| Binder | IC50 [µM] |
| --- | --- |
| B1 | 4.14 |

target: T1, PSMA Fab; assay: as above; remark: another data set of the same source

| Binder | IC50 [µM] |
| --- | --- |
| B1 | 5.23 |
| B11 | 15.7 |
| B12 | 28.2 |
| B13 | 60 |
| B14 | 8.45 |
| B15 | 67.9 |
| B16 | 2.16 |
| B17 | 5.7 |

target: T1, PSMA Fab; assay: as above; remark: another data set of the same source

| Binder | IC50 [µM] |
| --- | --- |
| B2 | 0.38 |
| B3 | 0.96 |
| B4 | 0.36 |
| B5 | 7.71 |
| B6 | 0.62 |
| B8 | 0.32 |
| B9 | 0.76 |
| B10 | 0.34 |

target: T2, Anti-CD28 scFv (VH - linker 1 - VL) (biotinylated (site not stated)); assay: clonal phage ELISA; biotinylated anti-CD28 scFv on neutravidin plate, bound phage detected with anti-M13 HRP
T2 sequence (scFv, as listed by the source): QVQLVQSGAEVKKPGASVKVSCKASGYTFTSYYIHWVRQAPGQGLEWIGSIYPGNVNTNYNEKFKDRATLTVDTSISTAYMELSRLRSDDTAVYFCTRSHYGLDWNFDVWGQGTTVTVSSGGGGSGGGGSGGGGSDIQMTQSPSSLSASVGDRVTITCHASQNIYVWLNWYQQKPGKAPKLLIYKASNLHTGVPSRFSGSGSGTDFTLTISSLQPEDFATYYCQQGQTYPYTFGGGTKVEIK

| Binder | CD28 scFv signal |
| --- | --- |
| B18 | 2.12 |
| B19 | 2.4 |
| B20 | 0.707 |

target: anti-CD28 Fab; assay: competition ELISA, peptide titrated 0-100 uM against 1 nM anti-CD28 Fab, plate-bound CD28 as competitor
Target sequence in this assay (VH, as listed by the source, chain 1 of 2): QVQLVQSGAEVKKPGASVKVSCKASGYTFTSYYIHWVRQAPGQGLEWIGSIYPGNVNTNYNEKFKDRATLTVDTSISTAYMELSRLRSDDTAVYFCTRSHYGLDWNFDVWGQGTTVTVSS
Target sequence in this assay (VL, as listed by the source, chain 2 of 2): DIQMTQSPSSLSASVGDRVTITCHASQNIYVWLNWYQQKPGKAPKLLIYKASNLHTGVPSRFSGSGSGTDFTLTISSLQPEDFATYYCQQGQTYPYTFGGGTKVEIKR

| Binder | IC50 [µM] |
| --- | --- |
| B21 | 7.89 |

target: T3, Anti-CD28 Fab (SEQ ID NOs: 696, 697); assay: phage binding ELISA on captured anti-CD28 Fab; wells pre-incubated with CD28 antigen as competitor
T3 construct: In the phage ELISA the Fab was biotinylated and captured on neutravidin coated plates
T3 sequence (VH, as listed by the source, chain 1 of 2): as the sequence (VH, as listed by the source, chain 1 of 2) above
T3 sequence (VL, as listed by the source, chain 2 of 2): as the sequence (VL, as listed by the source, chain 2 of 2) above
Description: (§1) After panning, phage infected bacteria were plated out and colonies picked into 96 well blocks. Clonal phage was then amplified and separated from bacterial cells via centrifugation.
(§2) Clonal phage were harvested as crude supematants and screened via standard ELISAs. […] Prior to the addition of clonal phage, wells were incubated with blocking buffer and CD28 antigen or blocking buffer alone. Without washing or aspirating, clonal phage supematants were then added to the wells and incubated for a short time. Wells were then washed followed by detection of bound phage using a horse radish conjugated anti-M13 antibody. Clonal phage of interest were then sent for sequence analysis.

| Binder | Phage binding ELISA, Anti-CD28 Fab signal in the presence of CD28 |
| --- | --- |
| B22 | 0.07 |

target: T4, anti-CD28 scFv (disulfide); assay: competition ELISA: peptide titrated (0-100 µM) with 0.3 nM anti-CD28 scFv (disulfide), binding to plate-bound CD28
T4 construct: also called Anti-CD28 scFv (VH - linker 1 - VL) Disulfide mutation: G44C, G235C
T4 sequence (scFv, as listed by the source): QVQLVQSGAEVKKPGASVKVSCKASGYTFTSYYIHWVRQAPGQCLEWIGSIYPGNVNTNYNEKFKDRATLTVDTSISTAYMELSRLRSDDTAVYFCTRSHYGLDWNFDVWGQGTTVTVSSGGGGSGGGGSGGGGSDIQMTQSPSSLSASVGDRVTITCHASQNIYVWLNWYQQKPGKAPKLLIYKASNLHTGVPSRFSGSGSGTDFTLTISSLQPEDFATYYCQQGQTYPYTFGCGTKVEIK

| Binder | IC50 [µM] |
| --- | --- |
| B23 | 0.78 |
| B24 | 0.48 |

target: T1, PSMA Fab; assay: competition ELISA; peptide 0-100 µM with 0.3 nM PSMA Fab on plate-captured biotinylated PSMA; remark: another data set of the same source
Description: The concentration of peptide required to reduce the maximum signal by 50% (IC₅₀) was calculated in Graphpad Prism software.

| Binder | IC50 [µM] |
| --- | --- |
| B5 | 6.49 |
| B25 | 19.7 |
| B26 | 49.7 |
| B27 | 34.5 |
| B28 | 40.8 |
| B29 | 13.7 |
| B30 | 6.64 |
| B31 | 9.16 |

target: T1, PSMA Fab; assay: BLI (Octet); PSMA Fab on sensor-loaded biotinylated peptide, 1:1 model; remark: another data set of the same source

| Binder | Off rate t1/2 [min] |
| --- | --- |
| B2 | 1.8 |
| B3 | 2.1 |
| B4 | 3.9 |
| B5 | 1.2 |
| B6 | 2 |
| B7 | 2.9 |
| B32 | 6.4 |
| B8 | 2.3 |
| B9 | 2.1 |
| B10 | 2.1 |

target: T2, Anti-CD28 scFv (VH - linker 1 - VL); assay: clonal phage ELISA on anti-CD28 scFv plate; wells pre-incubated with soluble CD28 as competitor
Description: Clonal phage were harvested as crude supernatants and screened via standard enzyme linked immunosorbent assays (ELISAs). […] Prior to the addition of clonal phage, wells were incubated with blocking buffer and CD28 soluble protein or blocking buffer alone. Without washing or aspirating, clonal phage supernatants were then added to the wells and incubated for a short time. Wells were then washed followed by detection of bound phage using a horse radish peroxidase conjugated anti-M13 antibody.

| Binder | CD28 scFv signal in presence of CD28 |
| --- | --- |
| B18 | 0.243 |
| B19 | 0.503 |
| B20 | 0.08 |

target: anti-CD28 Fab; assay: competition ELISA, peptide titrated 0-100 uM against 1 nM anti-CD28 Fab, plate-bound CD28 as competitor; remark: another data set of the same source
Target sequence in this assay (VH, as listed by the source, chain 1 of 2): as the sequence (VH, as listed by the source, chain 1 of 2) above
Target sequence in this assay (VL, as listed by the source, chain 2 of 2): as the sequence (VL, as listed by the source, chain 2 of 2) above

| Binder | IC50 [µM] |
| --- | --- |
| B21 | 11.8 |

target: T5, Anti-CD28 Fab (SEQ ID NOs: 696, 697); assay: phage binding ELISA; biotinylated Fab on neutravidin plate, clonal phage supernatant, anti-M13 HRP; background signal 0.06
T5 construct: Biotinylated and captured on neutravidin coated plates in the phage ELISA
T5 sequence (VH, as listed by the source, chain 1 of 2): as the sequence (VH, as listed by the source, chain 1 of 2) above
T5 sequence (VL, as listed by the source, chain 2 of 2): as the sequence (VL, as listed by the source, chain 2 of 2) above
Description: as §1, §2

| Binder | Anti-CD28 Fab signal (phage binding ELISA) |
| --- | --- |
| B33 | 1.5 |
| B34 | 1.49 |
| B35 | 1.49 |
| B36 | 1.5 |
| B37 | 1.49 |
| B38 | 1.51 |
| B39 | 1.51 |

target: T5, Anti-CD28 Fab (SEQ ID NOs: 696, 697); assay: phage binding ELISA on captured Fab; competitor: CD28 antigen pre-incubated in the wells
Description: as §1, §2

| Binder | Anti-CD28 Fab signal in the presence of CD28 (phage binding ELISA) |
| --- | --- |
| B33 | 0.06 |
| B34 | 0.08 |
| B35 | 0.06 |
| B36 | 0.06 |
| B37 | 0.1 |
| B38 | 0.06 |
| B39 | 0.06 |

target: T3, Anti-CD28 Fab (SEQ ID NOs: 696, 697); assay: phage binding ELISA; biotinylated anti-CD28 Fab captured on neutravidin plate, clonal phage supernatant, anti-M13 HRP detection
Description: as §1, §2

| Binder | Phage binding ELISA, Anti-CD28 Fab signal |
| --- | --- |
| B22 | 0.43 |

target: anti-CD28 Fab; assay: competition ELISA, peptide titrated 0-100 uM against 1 nM anti-CD28 Fab, plate-bound CD28 as competitor; remark: another data set of the same source
Target sequence in this assay (VH, as listed by the source, chain 1 of 2): as the sequence (VH, as listed by the source, chain 1 of 2) above
Target sequence in this assay (VL, as listed by the source, chain 2 of 2): as the sequence (VL, as listed by the source, chain 2 of 2) above

| Binder | IC50 [µM] |
| --- | --- |
| B40 | 7.59 |
| B41 | 7.04 |
| B21 | 2.39 |
| B42 | 69.1 |
| B43 | 43.6 |

target: T1, PSMA Fab; assay: binding ELISA; PSMA Fab titrated on plate-captured biotinylated peptide; remark: another data set of the same source

| Binder | EC50 [µM] |
| --- | --- |
| B1 | 0.102 |

target: anti-CD28 Fab; assay: BLI (Octet): biotinylated peptide on streptavidin sensor, anti-CD28 Fab titrated in solution, 1:1 model
Target sequence in this assay (VH, as listed by the source, chain 1 of 2): as the sequence (VH, as listed by the source, chain 1 of 2) above
Target sequence in this assay (VL, as listed by the source, chain 2 of 2): as the sequence (VL, as listed by the source, chain 2 of 2) above

| Binder | Kd [µM] | t1/2 [min] |
| --- | --- | --- |
| B23 | 0.11 | 0.8 |
| B24 |  | 1 |
